According to the nanobody polyreactivity screen of Harvey et al. (2022):

experiment: yeast display, Sf9 membrane polyspecificity reagent, FACS + sequencing; frameworks hold sequencing errors
Procedure, shortened: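 A nanobody's polyreactivity label depends on the gate it was sorted from. Yeast display cells were stained with 10% biotinylated, detergent-solubilized Sf9 membrane reagent for 1 hour at 4 °C, enriched on streptavidin microbeads and sorted by FACS. The low and high (top ~1%) gates were set on anti-HA fluorescence for expression and streptavidin fluorescence for reagent binding.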

Row | Sequence | polyreactivity (PSR sort gate)
1 | QVQLVESGGGLVQAGGSLRLSCAASGSIFGSNAMGWYRPAPGKERELVAAITNTGRTNYADSVKGRFTISRDNAKNTVYLQMNSLKPEDTAVYYCYTDGYEFTHFVGGWYQIIDYDYWGQGTQVTVSS | low polyreactivity
2 | QVQLVESGGGLVQAGGSLRLSCAASGRTFSKYAMGWYRQAPGKERELVAAITSGGGTYYADSVKGRFTNSRDNAKNTVYLQMNSLIPEDTGVYSCAVSVTTVSTYDYWGQGTQVTVSS | low polyreactivity
3 | QVQLVESGGGLVQAGGSLRLRWDASGRILWYNAMGWYRQAPGKERELVAAIRSGGRTHYADSVKGRFTISRDNAKNTVYLQMNCLKPEDTAVYYCAARSVPYPYRRNPYDYWGQGTQVTVSS | high polyreactivity
4 | QVHLVESGGGLVQAGGSLRLSCAASGSIFTQYAMGWYRQAPGKERELVARITGSGGRTYYADSVKGRFTISRDNAKNTVYLQMNSLKPEDTAVYYCNARLYTYGRHQGPDYNYWGQGTQVTVSS | high polyreactivity
5 | QVQLVESGGGLVQEGGSLRLSCAASGLIFRYYGMGWYRQAPGKERELVAAIRWSAGSTYYADSVKGRFTNSRDYAKITVYFQMNSLKPEDTAVYYCAVAIGYVYKPYYYWGQGTQVTVSS | high polyreactivity
6 | QVQLVESGGGLVQAGGSLLLSCAASGSTFGYNTMGWYRQAPGKERELVAAINYSGGRTYYADSVKGRFTISRDYAMNTVYLQMNSQKPEDTAVYYCNALSYPSRVYDAYDYWGQGTQVTVSS | high polyreactivity
7 | QVQLVESGGGLVQAGGSLRLSCAASGSIFGRNAMGWYRQAPGKERELVARISSRGGSTYYADSVKGRFTISRDNAKNTVYLQLISLKREDTALYYCAAEGGDRYALYTFYTWGQGTQVTVSS | high polyreactivity
8 | QVQLVESGGGLVQAGGSLRLSCAASGSTFVRNAMGWYRQAPGKERELVAAISTRGGSTSYADSVKGRFTISRDNAKNTVYLQMNCLKPEDTAVYYCAKVHAYSQGIRHGYWGQGTQVTVSS | low polyreactivity
9 | QVQLVESGGGLVQAGGSLRLSCAASGRIFKSYVMGWYRQAPGKERELVAAISWSGGTYYADSVMGRFTNSRDNAKNTVYLQMNCLKPEDTAVYYCAAYYLGSYNPLDYWGQGTQVTVSS | high polyreactivity
10 | QVQLVESGGGLVQAGASLRLSCAASGSTFARYAMGWYRQAPGKERELVAAISSSGRTYYADSVKGRFTISRDNAKNSVYLQMNSLKPEDTAVYYCNAPVARGEASYYWGQGTQVTVSS | high polyreactivity
11 | QVQLQERAAWCRRAGSLRLSFAASGNISDYYFMGWYRQAPGKEREIFAAIAPGSNTFFADSVKGRFTISRDNATNTVYLQMNSLNPEDTAVYYCARQGTIYSYDIVYPRLDYWGQGTQVTVSS | low polyreactivity
12 | QVQLVESGGGLVQAGGSLRLSCAASGFTFEKYVMGWYRQAPGKDREFVAAITRSGGRTYYADSVKGRFTISRDNAKNTVSLQMNSLKPEDTAVYYCAAAFSRSDTGGGSSGQGTQVTVSS | high polyreactivity
13 | QVQLVETGGGLVQAGGSLRLSCAASGFIFHPNTMGWYSPAPGKERELVAGISYSGGITYTDSVKGRFTISRDNAKNTVYLQMNSLKPEDTAVYYCSAGDKYHYYWGQGTQVTVSS | low polyreactivity
14 | QVQRVESGGGLVQAGASLRLSCAASGSTFDPYAKGWYRQAPGKERELVAAISGRGGSTYYADSVKGRFTISRDNAKNTLYLQMNSLKPEDTADYYCNAEGEYRRDRYDYWGQGTQVTVSS | low polyreactivity
15 | QVQLVESGGGLVQAGGSLRLSSAASGSTIVLYTMGWYRQAPGKEWELVAAITNGTRTYYADSVKGRFTISRDNAKNTVYLQMNSLKPQDTAVYYCAVDGVKRGADLFYYWGHGTQVTVSS | high polyreactivity
16 | QVQLVESGGGLVQAGGSLRLSCAASGIIFARNTMGWYRQAPGKERELVAAISTRGTTSYYADSVKGRFTISRDNAKYTVYLQMNSLKPEDTAVYYCAAVRVHTDRYNYWGQGTQVTVSS | high polyreactivity
17 | QVQLVESGGGLVQAGGSLRLSCAASGGTLYYNAMGWYRQAPGKERELVAAISGRGGRTYYADSVKGRFTISRDNAKNTVYLQMNSLKPEDTAVYYFARVTNDHYDYWGQGTQVTVSS | high polyreactivity
